One block for each binder: values may come before it.
Key:
[1] = molecular target: T1, recombinant human tPA (rh-tPA: abcam ab92637) (UniProt P00750 36-562); test: ELISA; Plate 2, cynomolgus serum, 37°C
[2] = molecular target: T1, recombinant human tPA (rh-tPA: abcam …); test: ELISA; Plate 1, PBS, 4°C
[3] = molecular target: T1, recombinant human tPA (rh-tPA: abcam …); test: ELISA; Plate 2, PBS, 4°C
[4] = molecular target: T1, recombinant human tPA (rh-tPA: abcam …); test: ELISA
[5] = molecular target: T1, recombinant human tPA (rh-tPA: abcam …); test: ELISA; Plate 2, mouse serum, 37°C
[6] = molecular target: T1, recombinant human tPA (rh-tPA: abcam …); test: ELISA; Plate 1, human serum, 37°C
[7] = molecular target: T1, recombinant human tPA (rh-tPA: abcam …); test: ELISA; remark: listed apart in the source
[8] = molecular target: T1, recombinant human tPA (rh-tPA: abcam …); test: ELISA; purified Fab
[9] = molecular target: T1, recombinant human tPA (rh-tPA: abcam …); test: ELISA; Plate 2, PBS, 4°C; remark: listed apart in the source
[10] = molecular target: T1, recombinant human tPA (rh-tPA: abcam …); test: ELISA; Plate 1, PBS, 37°C
[11] = molecular target: T1, recombinant human tPA (rh-tPA: abcam …); test: ELISA; Plate 1, PBS, 4°C; remark: listed apart in the source
[12] = molecular target: T1, recombinant human tPA (rh-tPA: abcam …); test: ELISA; Plate 2, mouse serum, 37°C; remark: listed apart in the source
[13] = molecular target: T1, recombinant human tPA (rh-tPA: abcam …); test: ELISA; Plate 1, human serum, 37°C; remark: listed apart in the source
[14] = molecular target: T1, recombinant human tPA (rh-tPA: abcam …); test: ELISA; Plate 2, mouse serum, 37°C; remark: listed apart in the source
[15] = molecular target: T1, recombinant human tPA (rh-tPA: abcam …); test: ELISA; Plate 2, PBS, 4°C; remark: listed apart in the source
[16] = molecular target: T1, recombinant human tPA (rh-tPA: abcam …); test: ELISA; Plate 1, PBS, 37°C; remark: listed apart in the source
[17] = molecular target: T1, recombinant human tPA (rh-tPA: abcam …); test: ELISA; Plate 1, PBS, 4°C; remark: listed apart in the source
[18] = molecular target: T1, recombinant human tPA (rh-tPA: abcam …); test: ELISA; Plate 1, human serum, 37°C; remark: listed apart in the source
[19] = molecular target: T1, recombinant human tPA (rh-tPA: abcam …); test: ELISA; Plate 2, cynomolgus serum, 37°C; remark: listed apart in the source

T1 sequence (P00750 36-562): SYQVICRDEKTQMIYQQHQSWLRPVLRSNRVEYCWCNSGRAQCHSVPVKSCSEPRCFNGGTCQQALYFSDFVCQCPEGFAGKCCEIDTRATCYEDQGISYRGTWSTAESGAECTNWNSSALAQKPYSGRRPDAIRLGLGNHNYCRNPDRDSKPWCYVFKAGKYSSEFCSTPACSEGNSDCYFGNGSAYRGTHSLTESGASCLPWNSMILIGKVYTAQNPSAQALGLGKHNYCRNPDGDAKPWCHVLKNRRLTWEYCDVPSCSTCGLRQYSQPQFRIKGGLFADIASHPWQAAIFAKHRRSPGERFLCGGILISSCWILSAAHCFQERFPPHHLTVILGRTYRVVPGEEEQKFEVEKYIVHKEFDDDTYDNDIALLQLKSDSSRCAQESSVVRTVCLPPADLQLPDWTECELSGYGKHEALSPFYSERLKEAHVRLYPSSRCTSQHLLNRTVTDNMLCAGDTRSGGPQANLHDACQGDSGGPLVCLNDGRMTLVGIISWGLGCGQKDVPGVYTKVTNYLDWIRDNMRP

EC50 [1]: 0.514 nM
EC50 [2]: 0.229 nM
EC50 [3]: 0.304 nM
IC50 [4]: 0.316 nM
EC50 [5]: 0.403 nM
EC50 [6]: 0.404 nM
IC50 [7]: 0.365 nM
B1: TPAi-1 RHP/RKA (antibody, V domains shown)
VH: QVQLVQSGAEVKKPGASVKVSCKASGNTSYWINWVRQATGQGLEWMGRIDPGGGSTGYAQKFQGRVTMTRDTSISTAYMELSSLRSEDTAVYYCASYYYAMAYWGQGTLVTVSS
VL: DVVMTQSPLSLPVTPGEPASISCRSSQSIVHSNGNTYLDWYLQKPGQSPQLLIYKVSNRASGVPDRFSGSGSGTDFTLKISRVEAEDVGVYYCFQGSHVPWTFGGGTKVEIK

IC50 [8]: 1.62 nM
EC50 [9]: 1.75 nM
EC50 [10]: 2.16 nM
EC50 [11]: 1.45 nM
EC50 [12]: 0.966 nM
EC50 [13]: 0.978 nM
B2: TPAi-1 RHP/RKA Fab (Fab, V domains shown)
VH: QVQLVQSGAEVKKPGASVKVSCKASGNTSYWINWVRQATGQGLEWMGRIDPGGGSTGYAQKFQGRVTMTRDTSISTAYMELSSLRSEDTAVYYCASYYYAMAYWGQGTLVTVSS
VL: DVVMTQSPLSLPVTPGEPASISCRSSQSIVHSNGNTYLDWYLQKPGQSPQLLIYKVSNRASGVPDRFSGSGSGTDFTLKISRVEAEDVGVYYCFQGSHVPWTFGGGTKVEIK

EC50 [14]: 0.694 nM
EC50 [15]: 0.51 nM
EC50 [16]: 0.972 nM
EC50 [17]: 0.596 nM
EC50 [18]: 0.647 nM
EC50 [19]: 0.717 nM
B3: TPAi-1 RHE/RKA (antibody, V domains shown)
VH: QVQLVQSGAEVKKPGASVKVSCKASGNTSYWINWVRQATGQGLEWMGRIDPGGGSTGYAQKFQGRVTMTRNTSISTAYMELSSLRSEDTAVYYCASYYYAMAYWGQGTLVTVSS
VL: DVVMTQSPLSLPVTPGEPASISCRSSQSIVHSNGNTYLDWYLQKPGQSPQLLIYKVSNRASGVPDRFSGSGSGTDFTLKISRVEAEDVGVYYCFQGSHVPWTFGGGTKVEIK

From US20210395393A1 (published 2021)
